Source: patent US20230212293A1 (published 2023)

Key:
[1] = target: T1, Human PD-1 overexpressed on HEK293 cells (human, UniProt Q15116 25-288); experiment: flow cytometry on HEK293 cells overexpressing human PD-1, PE anti-human IgM detection
T1 construct: whole, on cells
Description: (§1) HEK293 cells were modified to overexpress human or mouse PD-1. Cells were expanded in puromycin-containing media to maintain selection, and aliquoted to 96 well V-bottom plates for antibody staining and flow cytometric analysis. Anti-PD-1 antibodies were added to cells in BD stain buffer with fetal bovine serum (BD Biosciences, cat. #554656) and incubated on ice for 20 minutes. Cells were then washed, and R-phycoerythrin (PE)-labeled anti-human IgG or anti-human IgM secondary antibodies were then added and incubated for an additional 20 minutes. Data were collected on a Beckman Coulter CYTOFLEX® cytometer and analyzed in FLOWJO™.

[2] = target: T2, PD-1 on PD-1 reporter Jurkat cells (PATHHUNTER Checkpoint Signaling Assay) (UniProt Q15116 25-288); experiment: cell-based or functional assay
[3] = target: T2, PD-1 on PD-1 reporter Jurkat cells …; experiment: cell-based or functional assay; remark: listed apart in the source
[4] = target: T3, Mouse PD-1 overexpressed on HEK293 cells (mouse, UniProt Q02242 25-288); experiment: flow cytometry on HEK293 cells overexpressing mouse PD-1
T3 construct: whole, on cells
T3 sequence (looked up): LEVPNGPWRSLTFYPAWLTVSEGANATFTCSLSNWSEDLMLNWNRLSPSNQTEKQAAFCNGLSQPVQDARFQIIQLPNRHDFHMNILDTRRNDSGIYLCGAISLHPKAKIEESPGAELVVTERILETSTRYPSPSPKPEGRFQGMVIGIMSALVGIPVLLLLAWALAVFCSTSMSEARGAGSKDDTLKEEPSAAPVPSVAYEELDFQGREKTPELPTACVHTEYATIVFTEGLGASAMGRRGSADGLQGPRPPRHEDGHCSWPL
Description: as §1

[5] = target: T2, PD-1 on PD-1 reporter Jurkat cells …; experiment: cell-based or functional assay; remark: listed apart in the source
[6] = target: T4, Recombinant mouse PD-1 extracellular domain (with an immunoglobulin Fc region or a His tag) (mouse, UniProt Q02242 25-169); experiment: ELISA, plate-coated recombinant PD-1 extracellular domain
T4 construct: extracellular domain; Coated on ELISA plates; not shown: either an immunoglobulin Fc region or a His tag
T4 sequence (looked up): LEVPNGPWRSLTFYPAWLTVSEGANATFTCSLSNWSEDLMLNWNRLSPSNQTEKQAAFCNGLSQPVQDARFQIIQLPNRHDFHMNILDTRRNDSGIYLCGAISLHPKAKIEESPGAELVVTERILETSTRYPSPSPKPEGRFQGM
Description: (§2) An enzyme-linked immunosorbent assay (ELISA) was performed to assess the binding of anti-PD-1 antibodies to human, cynomolgus monkey, or mouse PD-1. Recombinant proteins containing the extracellular domain of PD-1 together with either an immunoglobulin Fc region or a His tag were used to coat wells of standard 96 well ELISA plates by overnight incubation at 4° C. Unbound recombinant protein was removed, Pierce SUPERBLOCK™ T20 was added, and plates were incubated for 10 minutes at room temperature with shaking. Plates were washed with phosphate buffered saline-TWEEN-20 (PBST), and anti-PD-1 antibodies were added in phosphate buffered saline (PBS) with 1% bovine serum albumin (BSA) and incubated for one hour at room temperature with shaking. Plates were then washed in PBST and incubated with horse radish peroxidase (HRP)-conjugated secondary antibodies in F(ab′)2 directed to either human IgG or human IgM. After one hour, plates were washed again with PBST, signal was developed with SUPERSIGNAL™ ELISA Pico substrate, and an ENVISION® luminometer (PerkinElmer) was used to record signal. Data were analyzed with […] PRISM®.

[7] = target: T5, Recombinant human PD-1 extracellular domain (with an immunoglobulin Fc region or a His tag) (human, UniProt Q15116 25-170); experiment: ELISA, plate-coated recombinant PD-1 extracellular domain, HRP anti-human IgM detection
T5 construct: extracellular domain; Coated on ELISA plates; not shown: either an immunoglobulin Fc region or a His tag
Description: as §2

T2 sequence (Q15116 25-288): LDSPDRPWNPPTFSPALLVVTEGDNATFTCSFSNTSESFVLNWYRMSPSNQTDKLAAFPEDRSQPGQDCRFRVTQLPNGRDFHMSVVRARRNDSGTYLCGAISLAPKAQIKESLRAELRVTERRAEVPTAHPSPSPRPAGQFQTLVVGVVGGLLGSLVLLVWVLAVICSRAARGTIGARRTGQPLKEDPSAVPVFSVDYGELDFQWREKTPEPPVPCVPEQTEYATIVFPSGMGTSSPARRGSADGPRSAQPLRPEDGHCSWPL
T5 sequence (Q15116 25-170): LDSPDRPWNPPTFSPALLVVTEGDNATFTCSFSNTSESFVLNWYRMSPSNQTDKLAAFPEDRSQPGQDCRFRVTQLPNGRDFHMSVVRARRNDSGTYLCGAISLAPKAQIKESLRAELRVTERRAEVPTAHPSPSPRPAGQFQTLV
T1 sequence (Q15116 25-288): as the sequence (Q15116 25-288) above

B1: Anti-PD-1 IgM #1 (antibody)
VH: EVQLQESGPGLVKPSQTLSLTCTVTGYSITSDYAWNWIRQPPGKKLEWMGYINYSGSTSYNPSLKSRVTISRDTSKNQFSLKLSSVTAADTAVYYCARWIGSSAWYFDVWGQGTLVTVS
VL: DVLMTQTPLSLSVTPGQPASISCRSGQNIVHSNGNTYLEWYLQKPGQSPKLLIYKVSNRFFGVPDRISGSGSGTDFTLKISRVEAEDVGVYFCFQGSHVPFTFGQGTKLEIK
chain: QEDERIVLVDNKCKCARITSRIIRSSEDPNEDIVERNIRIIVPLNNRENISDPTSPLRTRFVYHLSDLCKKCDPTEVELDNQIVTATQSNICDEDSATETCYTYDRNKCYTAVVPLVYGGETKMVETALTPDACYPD
notes: also called Antibody #1 (IgM format); pentameric IgM #1
EC50 [1]: 0.2 nM
PD-1 Signaling EC50 (second incubation at 4 C), IgM [2]: 0.031 nM
PD-1 Signaling EC50 (PATHHUNTER Checkpoint Signaling Assay, reporter Jurkat cells), IgM [3]: 0.014 nM
binding result [4]: no binding
PD-1 Signaling EC50 (method of Example 8), IgM [5]: 0.057 nM
binding result [6]: no binding
EC50 [7]: 0.087 nM
